The record followed here is patent publication US9266930.

Where two headings read alike, the source gives them in different places.

Assay [1] has as its target HLA-A*0301 (human).
For assay [2], the target named is HLA-A*1101 (human).
Assay [3] addresses HLA-A*0301 (human). The source holds these as a separate data set.
Assay [4] deals with HLA-A*1101 (Human).
For assay [5], the target named is HLA-A*0301 (human). Description: competition with 125I-labeled probe peptide for purified HLA, gel filtration.
Assay [6] has as its target HLA-A*1101 (human). The assay is described as above.
In another assay the target is HLA-A*3101 (human). The assay is described as above.
A further assay deals with HLA-A*3301 (human). Described as above.
The target of a further assay is HLA-A*6801 (human). The assay is described as above.
Assay [7] addresses HLA-A*0301 (human). This is another data set of the same source.
Assay [8] deals with HLA-A*0301 (human). The source holds these as a separate data set.

On to NLPNDKSDR (modifications not checked) [… (P. falciparum SSP2, position 406, 9 amino acids)], for which the binding affinity ratio (relative to standard peptide) in the assay with HLA-A*0301 (human) [1] amounted to 0.0005; in the assay with HLA-A*1101 (human) [2] it was 0.0002.
With GSGEPLIDVH (modifications not checked) [… (P. falciparum EXP, position 42)], the binding affinity ratio (IC50 of standard peptide / IC50 of test peptide) with HLA-A*0301 (human) [3] was found to be 0.0005; with HLA-A*1101 (Human) [4], 0.0002.
In the case of VPGAATPYA (modifications not checked) [… (P. falciparum SSP2, position 522)], in the assay with HLA-B*0702 (Human), the binding affinity ratio (IC50 of standard peptide / IC50 of test peptide) amounted to 0.0001.
LALFFIIFNK (modifications not checked) [… (P. falciparum EXP, position 9, 10 amino acids)]: the binding affinity ratio (relative to standard peptide) in the assay with HLA-A*0301 (human) [5] came out at 0.014; with HLA-A*1101 (human) [6], 0.053; with HLA-A*3101 (human) it was 0.0072; with HLA-A*3301 (human), 0.0076; in the assay with HLA-A*6801 (human), 0.0039.
Take LALFFIIFNK (modifications not checked) [… (P. falciparum EXP, position 9)]: the binding affinity ratio (IC50 of standard peptide / IC50 of test peptide) with HLA-A*0301 (human) [7] was 0.014.
On to IAGGLALLA (modifications not checked) [… (P. falciparum SSP2 position 504, 9-mer, A3 motif peptide)], for which, in the assay with HLA-A*0301 (human) [8], the binding affinity ratio (IC50 of standard peptide / IC50 of test peptide) was determined as 0.0002.
